In patent US20220380454A1 (University of California, published 2022):

Key:
[1] = target: T1, oligomeric Aβ42 (biotin-Aβ42 oligomers) (human, biotin (human biotin-beta-Amyloid (1-42), AnaSpec); position not stated); assay: biotin-Aβ42 oligomers on transfected HEK293T cells, 488-conjugated streptavidin staining
T1 construct: Mixture of oligomers prepared from human Aβ42 (24-26 h at 4 °C, supernatant); The number of copies per oligomer is therefore not fixed; also called Aβ oligomers; oligomerized Aβ
Excerpt: Binding assay. HEK293 cells were transiently transfected (polyethylenimine) with expression vectors encoding TdTomato, Celsr3-Flag or control empty vectors (pCAGEN). […] DAPI was used to counterstain cell nuclei; TdTomato was used to monitor construct transfection. Anti-flag antibody was used to stain Celsr3. Fluorescent images were captured with Zeiss LSM 880 fast airyscan using a 63× oil-immersion objective.

[2] = target: T1, oligomeric Aβ42 (biotin-Aβ42 oligomers); assay: biotin-Aβ42 oligomers on transfected HEK293T cells, streptavidin staining

Row | Binder | binding result [1] | binding result [2]
1 | Vangl2-Flag (other, not shown: small tags and cut ends) MDTESQYSGYSYKSGHSRSSRKHRDRRDRHRSKSRDGSRGDKSVTIQAPGEPLLDNESTRGDERDDNWGETTTVVTGTSEHSISHDDLTRIAKDMEDSVPLDCSRHLGVAAGAILALLSFLTPLAFLLLPPLLWREELEPCGTACEGLFISVAFKLLILLLGSWALFFRRPKASLPRVFVLRALLMVLVFLLVISYWLFYGVRILDARERSYQGVVQFAVSLVDALLFVHYLAVVLLELRQLQPQFTLKVVRSTDGASRFYNVGHLSIQRVAVWILEKYYHDFPVYNPALLNLPKSVLAKKVSGFKVYSLGEENSTNNSTGQSRAVIAAAARRRDNSHNEYYYEEAEHERRVRKRRARLVVAVEEAFTHIKRLQEEEQKNPREVMDPREAAQAIFASMARAMQKYLRTTKQQPYHTMESILQHLEFCITHDMTPKAFLERYLAAGPTIQYHKERWLAKQWTLVSEEPVTNGLKDGIVFLLKRQDFSLVVSTKKVPFFKLSEEFVDPKSHKFVMRLQSETSV | no binding (tested: 200 nM total peptide, monomer equivalent) | –
2 | mouse Ryk-HA (receptor, UniProt Q01887 35-594, looked up, whole, on cells; Expressed in HEK293T cells; not shown: HA tag) RSPALAAAPAGPSVSLYLSEDEVRRLLGLDAELYYVRNDLISHYALSFNLLVPSETNFLHFTWHAKSKVEYKLGFQVDNFVAMGMPQVNISAQGEVPRTLSVFRVELSCTGKVDSEVMILMQLNLTVNSSKNFTVLNFKRRKMCYKKLEEVKTSALDKNTSRTIYDPVHAAPTTSTRVFYISVGVCCAVIFLVAIILAVLHLHSMKRIELDDSISASSSSQGLSQPSTQTTQYLRADTPNNATPITSSSGYPTLRIEKNDLRSVTLLEAKAKVKDIAISRERITLKDVLQEGTFGRIFHGILVDEKDPNKEKQTFVKTVKDQASEVQVTMMLTESCKLRGLHHRNLLPITHVCIEEGEKPMVVLPYMNWGNLKLFLRQCKLVEANNPQAISQQDLVHMAIQIACGMSYLARREVIHRDLAARNCVIDDTLQVKITDNALSRDLFPMDYHCLGDNENRPVRWMALESLVNNEFSSASDVWAFGVTLWELMTLGQTPYVDIDPFEMAAYLKDGYRIAQPINCPDELFAVMACCWALDPEERPKFQQLVQCLTEFHAALGAYV | – | no binding (tested: 200 nM total peptide, monomer equivalent)
3 | human Ryk-Flag (receptor, not shown: Flag tag) PPPLLLLLALLPLLPAPGAAAAPAPRPPELQSASAGPSVSLYLSEDEVRRLIGLDAELYYVRNDLISHYALSFSLLVPSETNFLHFTWHAKSKVEYKLGFQVDNVLAMDMPQVNISVQGEVPRTLSVFRVELSCTGKVDSEVMILMQLNLTVNSSKNFTVLNFKRRKMCYKKLEEVKTSALDKNTSRTIYDPVHAAPTTSTRVFYISVGVCCAVIFLVAIILAVLHLHSMKRIELDDSISASSSSQGLSQPSTQTTQYLRADTPNNATPITSSLGYPTLRIEKNDLRSVTLLEAKGKVKDIAISRERITLKDVLQEGTFGRIFHGILIDEKDPNKEKQAFVKTVKDQASEIQVTMMLTESCKLRGLHHRNLLPITHVCIEEGEKPMVILPYMNWGNLKLFLRQCKLVEANNPQAISQQDLVHMAIQIACGMSYLARREVIHKDLAARNCVIDDTLQVKITDNALSRDLFPMDYHCLGDNENRPVRWMALESLVNNEFSSASDVWAFGVTLWELMTLGQTPYVDIDPFEMAAYLKDGYRIAQPINCPDELFAVMACCWALDPEERPKFQQLVQCLTEFHAALGAYV | – | no binding (tested: 200 nM total peptide, monomer equivalent)
4 | Frizzled3-HA (receptor, not shown: small tags and cut ends, Expressed in transfected HEK293T cells; also called Fzd3-HA; HA-tagged Frizzled3) HSLFSCEPITLRMCQDLPYNTTFMPNLLNHYDQQTAALAMEPFHPMVNLDCSRDFRPFLCALYAPICMEYGRVTLPCRRLCQRAYSECSKLMEMFGVPWPEDMECSRFPDCDEPYPRLVDLNLVGDPTEGAPVAVQRDYGFWCPRELKIDPDLGYSFLHVRDCSPPCPNMYFRREELSFARYFIGLISIICLSATLFTFLTFLIDVTRFRYPERPIIFYAVCYMMVSLIFFIGFLLEDRVACNASSPAQYKASTVTQGSHNKACTMLFMVLYFFTMAGSVWWVILTITWFLAAVPKWGSEAIEKKALLFHASAWGIPGTLTIILLAMNKIEGDNISGVCFVGLYDVDALRYFVLAPLCLYVVVGVSLLLAGIISLNRVRIEIPLEKENQDKLVKFMIRIGVFSILYLVPLLVVIGCYFYEQAYRGIWETTWIQERCREYHIPCPYQVTQMSRPDLILFLMKYLMALIVGIPSIFWVGSKKTCFEWASFFHGRRKKEIVNESRQVLQEPDFAQSLLRDPNTPIIRKSRGTSTQGTSTHASSTQLAMVDDQRSKAGSVHSKVSSYHGSLHRSRDGRYTPCSYRGMEERLPHGSMSRLTDHSRHSSSHRLNEQSRHSSIRDLSNNPMTHITHGTSMNRVIEEDGTSA | no binding (tested: 200 nM total peptide, monomer equivalent) | –
